From the DeepSol protein solubility set come the findings set out here.

This data set is described as follows: soluble on expression in E. coli; label from the status in PepcDB or PDB records.
As for “MQLKRKNSVFIDPRIQEVAGPCEPSDNGNNEEEDKIISIRATASSASITKESVPEAPPTHFIPVVVTVEPDAWEKFRDIIQVNRNIVIVKVGRWLMSSFMPGDQISLVNGTAIWNSDDLENQVRGPKKETKTEVTVIRVWNLKCLTDIQLDKLLVPPEEQLHYFSVKVYSSKGTIGLKLCLDKKRVLVELIRAKTPVNSALLVGDQILGINDELLTAKSKRALRKQVAEVMKKSIKKQGFAEIIACRQVIARSSPAPSLEAELSEKFANYAVGVEKGTRIEKKDSSETNSLPLHSDALEIALRELACLKQWIVESSTEVPPCDKGPTLMIDPPTAPGSAEGCPPPLVKAKSTTNAIERSVYFPLSTTAAVAILVSTPKKRSIFRQQDRNSAINFAEQPDHEKITSDIPEEDDLKKCEPMSGIAAYIKKKFN”, the “soluble on expression in E. coli” value is “not soluble”.

In the case of “MGSDKIHHHHHHMQILFFMKIIRDPIHGYIEVEDFVLQIISTEIFQRLRHITQTGLAYLVYPGMRHTRFEHSLGVMHLAKELTRYIKINSEQYTDLDFINEEYLKLVGLSGLLHDIGHLPFSHTFENALSLAKEVYGIDVEYYGKKTHVIFGNRVIDYYLGNYLDKLSKNYDVVNFVQRVISSTPRTKEESLASLIISSPLDADRGDYLLRDSYFAGVGYGNFDIERIKRSLIYVNGKLAVLKKAIPVVEQFLLARMYMYETIYFHSVVGLYNAVLSHAVVKLIQKNLIPNVAPENYLKLNDVVIMSKLNEAGREFFDAIVYRKGFKRYKKDLTGNCYETLEKKRKEINEIMRENNGLILYHDFYDVPYSEDEIFVYDDDELKPLSTESKIVSSLTIIKKGIVGYHESAEDKMKKIYEILQECPL”, the “soluble on expression in E. coli” value was “not soluble”.

Turning to “GMREDMKDNVVKDKSLEFAVRIVNLYKFLVNEQKEFVMSKQILRSGTSIGANIREAEQAQSRADFINKLNIALKEANETEYWLELLIRTEYITREQYESINNDSTEINKLLISIIKTTKNN”, the “soluble on expression in E. coli” value is on record as “soluble”.

On to “MSLTATTDGSTGASLRPLAASASDTDITIPAAAAGVPEAAARATRRATDFLLAKQDAEGWWKGDLETNVTMDAEDLLLRQFLGIQDEETTRAAALFIRGEQREDGTWATFYGGPGELSTTIEAYVALRLAGDSPEAPHMARAAEWIRSRGGIASARVFTRIWLALFGWWKWDDLPELPPELIYFPTWVPLNIYDFGCWARQTIVPLTIVSAKRPVRPAPFPLDELHTDPARPNPPRPLAPVASWDGAFQRIDKALHAYRKVAPRRLRRAAMNSAARWIIERQENDGCWGGIQPPAVYSVIALYLLGYDLEHPVMRAGLESLDRFAVWREDGARMIEACQSPVWDTCLATIALADAGVPEDHPQLVKASDWMLGEQIVRPGDWSVKRPGLPPGGWAFEFHNDNYPDIDDTAEVVLALRRVRHHDPERVEKAIGRGVRWNLGMQSKNGAWGAFDVDNTSAFPNRLPFCDFGEVIDPPSADVTAHVVEMLAVEGLAHDPRTRRGIQWLLDAQETDGSWFGRWGVNYVYGTGSVIPALTAAGLPTSHPAIRRAVRWLESVQNEDGGWGEDLRSYRYVREWSGRGASTASQTGWALMALLAAGERDSKAVERGVAWLAATQREDGSWDEPYFTGTGFPWDFSINYNLYRQVFPLTALGRYVHGEPFAKKPRAADAPAEAAPAEVKGSEGHHHHHH”, for which the “soluble on expression in E. coli” value is “soluble”.

As to “MTFYFYFVINMEKVAIYIIGDIVLAENTGKALKKWRNLFNIQQIELAKYLNVSPSVISDYEVGRRKNPGVNIIKKYVLALIEIDKEKGGQTIKALKRILDKSPSMKAILSIKEYENPITLNEFVNIIDGEIAVGDNSDTPIYGHTVVDSIKAILEMTGDDFYHLYGWTTERALIFTNVSTGRSPMVAVRVSIMKPRVVVLQGINKDKIDSLALKLAEIDNIPLITTHLDTKELIKRLNEIK”, the “soluble on expression in E. coli” value is recorded as “not soluble”.

Consider “MKIEEVRFGLVKIDGKEFDHDIVIYPSGRIERRMKEISKKKHGTSHKLDPEELEKYLVEDFDVLLVGTGIYGMLSLLPESKKLVEDKEVIEKPTKEALKLLEELWGKKRILAIIHVTC”, for which the “soluble on expression in E. coli” value is listed as “soluble”.

Consider “MGHHHHHHSHMCGKFTLFSEFDDIIEQFNIDQFLPEGEYHPSYNVAPSQNILTIINDGSNNRLGKLRWGLIPPCAKDEKIGYKMINARAETLAEKPSFRKPLGSKRCIIPADSFYEWKRLDPKTKIPMRIKLKSSNLFAFAGLYEKWNTLEGNLLYTCTIITIKPSELMEDIHDRMPVILTDENKKEWLNPKNTDPDYLQSLLLPYDADDMEAYQVSSLVNSPELIESH”, for which the “soluble on expression in E. coli” value was “soluble”.

As for “MGSDKIHHHHHHMRALATWQDKCIDSQLLVASLVGLFKQRDLDCDKLLRGTGIFITDIRKPDHLISPKQLARLLDNALAQWPNGDLSFLLGQLWFPSQSGVLTSGMFCARDVKELIYFWHKYHWLTQPWLQTWRWQGEHEWHFLLSLDLGMHRHKQFFIELSLSSFMACFKQLLGQAWRGSICFPYPAPDNLAHYYKYFGMDLRFDAPLCRISMAKNLLRQPSLFANQSLLYSQPENVDTHCAEDAQLPSASQSCIHGEAASPALDIQPLQLPLRPQLNMAKAARQALFAQEFRLGLAAGIRLKLMRRTLSLPEMAQILEISPATLKRRLGEMGLNYGQLADESRLIRALYFLAEPEQDAHSIASSLSFSDASNFRRSFKRWTGQLPGYFRYWLA”, the “soluble on expression in E. coli” value is “not soluble”.

Turning to “MRIVTAAVMASTLAVSSLSHAAEVGSGDNWHPGEELTQRSTQSHMFDGISLTEHQRQQMRDLMQQARHEQPPVNVSELETMHRLVTAENFDENAVRAQAEKMANEQIARQVEMAKVRNQMYRLLTPEQQAVLNEKHQQRMEQLRDVTQWQKSSSLKLLSSSNSRSQMAGDPLEHHHHHH”, the “soluble on expression in E. coli” value is reported as “not soluble”.

On to “MDTSLPSAILNNMVTATLILDDGLAIRYANPAAELLFSQSAKRIVEQSLSQLIQHASLDLALLTQPLQSGQSITDSDVTFVVDGRPLMLEVTVSPITWQRQLMLLVEMRKIDQQRRLTQELNQHAQQQAAKLLVRGLAHEIKNPLGGLRGAAQLLEKMLPDPSLTEYTHIIIEQADRLRALVDRLLGPQKPGK”, for which the “soluble on expression in E. coli” value is reported as “not soluble”.

As for “MADIYPLGKTHTEELNEIIVESAKEIAEPDTTMIQKLIDEHNPEPLLKGVRYYMCENDIEKKRRTYYDAAGQQLVDDTKTNNRTSHAWHKLFVDQKTQYLVGEPVTFTSDNKTLLEYVNELADDDFDDILNETVKNMSNKGIEYWHPFVDEEGEFDYVIFPAEEMIVVYKDNTRRDILFALRYYSYKGIMGEETQKAELYTDTHVYYYEKIDGVYQMDYSYGENNPRPHMTKGGQAIGWGRVPIIPFKNNEEMVSDLKFYKDLIDNYDSITSSTMDSFSDFQQIVYVLKNYDGENPKEFTANLRYHSVIKVSGDGGVDTLRAEIPVDSAAKELERIQDELYKSAQAVDNSPETIGGGATGPALEKLYALLDLKANMAERKIRAGLRLFFWFFAEYLRNTGKGDFNPDKELTMTFTRTRIQNDSEIVQSLVQGVTGGIMSKETAVARNPFVQDPEEELARIEEEMNQYAEMQGNLLDDEGGDDDLEEDDPNAGAAESGGAGQVS”, the “soluble on expression in E. coli” value is given as “soluble”.

For the sequence “MGSSHHHHHHGKTIFVIVPTNEEQVAFLEALAKQDELNFDWQNPPTEPGQPVVILIPSDMVEWFLEMLKAKGIPFTVYVEEGGSENLYFQGGGGGGSDGAIVPREGSPQSISEELERRRSEARNLELRVSRKEAELQRAKEEQELLKEMRTVNEMIIRKKERQLSEGVANGVKISPESLAELNALGDALRLENLKTVELQREADVTSHQMEEVERSLENTEKQLLEAKRSTGWDVDRNSARTETAMESAFKEKKRLLSSLTSEQRTLSELSERLKQHAEECQAKVDAAEGMDERFAEAEEQLRQANARYRELIEEVMSNERIQKKTERVLTVANTQDKYKCIRQLEGEKRALHNDLSKLRETNVSNSRSILSLEVRLRQLETRLEAVNGFLREVFAEVEDDEPMDNVPEGAVEVPLALFEELSAALELSRETVVQRDDQLDEHDCKIEQMERKVVILQNAIASRAVSAQVQARGRDTQQRSMYANHSRRRSQLRTERDQLAVENTVLRNRLALL”, the “soluble on expression in E. coli” value was “not soluble”.

For the sequence “MGSDKIHHHHHHMGNFHTMLDALLEDQEEAVLATIVQVEGSAYRKAGASMLFKKKGRRIGLLSGGCVEEDVFQRISALGDQLTSTLIPYDMRSEDDLSWGMGAGCNGIIHVHAERITQEKRRHYEKVRDCLHSGKAVTSVIKIESSHYLFLTENGHFGNWPDAPLQDIQRTVSTLHLPHFDQTTNMFIQRIEPKPRLILFGAGPDNVPLANLAADTGFSVIVTDWRPAYCTSSLFPYAYYLITAFPEQMLSEFQFFPHDAAVVATHHYQHDQTIINFLFSQNLHYIGLLGSANRTKRLLSGKHPPSHFYSPVGLKIGAEGPEEIAVSVVAEIIQTRKRVAVV”, the “soluble on expression in E. coli” value was “not soluble”.

Turning to “MAHHHHHHMHTKHTRRPVDTHKRNTMPLIRPGMPKPPQGFDVVLAKLEEYDEQMKLATQEESKGVVGVTTRPRHSGGFGARKRMRDDDANAEDGTVAPPAEASSTVAAAESEAGTSTAGDDNAEAKEEPPIPPLWRMAAINRARTRYVFLAYYKQHIISKEVYDYCVDTRLIDGGLARRWRLPGYERLCCTACGVPGAASLAASITSKYALRDRQERRLTTSASQQRIHDTATCLCRVPAAQRRSKHFVACAACGCHGCCSADAMKGPKEGDGGEKTDKTREEPSVNAPGRGEA”, the “soluble on expression in E. coli” value is listed as “not soluble”.

With “MGSDKIHHHHHHQAIAPAPADPAAALMPSPWSGSSGELGYASAHGNSTTDSLNGRIRLRYTDGDWIHSLDATALRSSSEYTNTNDDGSVTRERQTTAERYTGSAGSALQLGEHRQLTATGRYEHDDFATYDRLATFGIGYGTRLIDADRFYLDAQIGPGIRRAHNSDDDRNETGLIGRGLFDLKYTVTDNTDLINTLLVESGEYNTYAQNDFGVQVSMNSHFALKAAWQMRHNSDVSEGDKKTDTLTTVNLVYTFK”, the “soluble on expression in E. coli” value is listed as “not soluble”.

With “MGITALAFDFGTKSIGCAIGQSITGTAQALPAFKAQDGIPNWEAIEKCLKEWKPDVVIVGLPLNMDGTEQDLTLRARKFANRLQGRFGVNVHLQDERLTTTQARSEIFERGGFKALKKGKIDGVSACLILESWFEYAEY”, the “soluble on expression in E. coli” value is recorded as “not soluble”.

On to “MIQLKNVGITLSGKGYERFSLENINLEVNGEKVIILGPNGSGKTTLLRAISGLLPYSGNIFINGMEVRKIRNYIRYSTNLPEAYEIGVTVNDIVYLYEELKGLDRDLFLEMLKALKLGEEILRRKLYKLSAGQSVLVRTSLALASQPEIVGLDEPFENVDAARRHVISRYIKEYGKEGILVTHELDMLNLYKEYKAYFLVGNRLQGPISVSELLESSIVEGERNDALLVLDIMDKKVSIVKGDLGMKFGALGSLNRIYGIIGA”, for which the “soluble on expression in E. coli” value is on record as “soluble”.

Regarding “MGSDKIHHHHHHMYQKGVSTREIGHFIEKILGHSYSASTISQVTDVVTEDITQWQQRPLKKRYSVLYLDGTYLKLRREDVANEVVYLVVGVTEEGYREILGFYVGGQESANGWRNILLDLYSRGLEEVLLGVFDGLAGLEEAMKAVYPKADVQRCVVHKVRNALHAVRKKDQPAVAQDFKPIYQANTYEEAKNRFKEFKENWQKRYPKVVATWEKDLDVLLTFLSYPSTIRPMIYTTNIIERTMKEIKKRTKTMNSLPNEKAAEKIVYLQAIDYNERWATRRLRGFGEAYEALQEMFKQRYSGP”, the “soluble on expression in E. coli” value is listed as “not soluble”.

Regarding “MAHHHHHHMSASLKKTALHLFHLAQQAKMDAFAGYHMPISYGRLGVLKEHLYTREVAGIFDVSHVGQYEVRGADRERFLEHVTPVDLQRIRAGHGALTMLTNAQGGIKDDCIVTKMADHLFLVLNAGCKEKDVAHMESVLRESAMKGADVQLVPLDRSLIALQGPQAAAILSEFMDDVPGMGFMQCRQRVNIKGMEVQVTRCGYTGEDGFELSVSNTDIVALVELLMSRKAEMIGLGARDSLRLEAGLNLYGHELTEDINPVAARFMWVISKRRMAEGGFIGYEPIKYLRDNASKGAVPRLRVGLVSTGPVAREKTVIEVGGKPVGEVTSGCPSPCLKKNIAIGYLDRELAKDGVKVDLVVRGRRVAAVVVTPPFVPARYYRKPK”, the “soluble on expression in E. coli” value is “not soluble”.
